We go through 1 substance from US20030129606A1.

Assay [1] has as its target MBP.
Assay [2] addresses GST-ATF2 (substrate of kinase assays, residues not stated) (Homo sapiens (Human)) (UniProt P15336).
Assay [3] addresses GST-IκB (Schistosoma japonicum (Blood fluke)) [GST: P08515].
Assay [4] addresses GST-EGF-R (residues 647-688) (Homo sapiens (Human)) (UniProt P00533).

As to “GST-p38 MAP kinase (from UniProt Q16539) (enzyme)”, the relative phosphorylation (PhosphorImager) (relative phosphorylation) worked out at 0.23 in assay [1], 1 in assay [2], 0.001 in assay [3] and 0.04 in assay [4].
